Results on 4 molecules are retold here after paper doi:10.1101/501064 (bioRxiv, 2018).

Non-standard residues stand in square brackets, D forms with d. No end group written: not given here. pS = N[C@@H](COP(=O)(O)O)C(=O)O

T1: human Scribble PDZ3 domain (1005-1094) (human, UniProt Q14160 1005-1094)
T1 sequence (looked up): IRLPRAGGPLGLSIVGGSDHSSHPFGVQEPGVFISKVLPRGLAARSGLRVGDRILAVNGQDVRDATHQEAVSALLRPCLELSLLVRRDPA

B1: phosphorylated MCC 8-mer peptide (phospho-Ser at position -1) (peptide)
peptide: PHTNET[pS]L
B2: MCC 8-mer peptide spanning the C-terminus (PDZ-binding motif) of human MCC (peptide)
peptide: PHTNETSL
B3: MCC_SE 8-mer peptide (Ser to Glu at position -1) (peptide)
peptide: PHTNETEL
B4: MCC_SD 8-mer peptide (Ser to Asp at position -1) (peptide)
peptide: PHTNETDL

In the first experiment the target is human Scribble PDZ1 domain (728-815) (human, UniProt Q14160 728-815). The experiment in a line: ITC. For orientation: In ITC the heat of successive injections is recorded.
Chain of human Scribble PDZ1 domain (728-815) (Q14160 728-815): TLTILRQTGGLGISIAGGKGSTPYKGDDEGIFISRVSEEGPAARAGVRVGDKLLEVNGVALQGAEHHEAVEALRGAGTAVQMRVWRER
Regarding B1, the affinity, expressed as Kd, was 6.1 µM.
Same read-out and setting: to B2 belongs 7.7 µM.
On the same count and under the same terms, to B3 belongs 7.2 µM; to B4, 7 µM.

The target of another experiment is T1, human Scribble PDZ3 domain (1005-1094). Nature of the experiment: ITC.
For the molecule B1, the Kd (commonly a measure of binding affinity in units of concentration) amounted to 3.7 µM.
Same read-out and setting: to B2 belongs 5 µM.
Consider B3, for which the Kd is 4.5 µM.
Regarding B4, the Kd was found to be 3.4 µM.
